# Assay results reported in patent publication US20250354175, “ATTP MV4-DERIVED SITE-SPECIFIC RECOMBINATION AND ITS USE FOR INTEGRATION OF SEQUENCE OF INTEREST” (INSTITUT NATIONAL DE RECHERCHE POUR L'AGRICULTURE, …, published 2025).
# B1: BOB' WT attB 35 bp (dsDNA)
# DNA 1: GGTATTGTTCAAATCCTGTACTCTCCTTGCGTAAC
# DNA 2: GTTACGCAAGGAGAGTACAGGATTTGAACAATACC
# B2: COC' WT core-attP 35 bp (dsDNA)
# DNA 1: GGTATTGGAAAGAACCTGTACTCTCCTTGCGTAAC
# DNA 2: GTTACGCAAGGAGAGTACAGGTTCTTTCCAATACC
# How the values were obtained:
# [1] = target: T1, mv4Int (369 aa integrase) (Lactobacillus delbrueckii bacteriophage …); experiment: EMSA; with arm DNA; complex III increases with mv4Int; settings: tags: expressed from pET15b; label: Cy3 on bottom strand
# T1 chain: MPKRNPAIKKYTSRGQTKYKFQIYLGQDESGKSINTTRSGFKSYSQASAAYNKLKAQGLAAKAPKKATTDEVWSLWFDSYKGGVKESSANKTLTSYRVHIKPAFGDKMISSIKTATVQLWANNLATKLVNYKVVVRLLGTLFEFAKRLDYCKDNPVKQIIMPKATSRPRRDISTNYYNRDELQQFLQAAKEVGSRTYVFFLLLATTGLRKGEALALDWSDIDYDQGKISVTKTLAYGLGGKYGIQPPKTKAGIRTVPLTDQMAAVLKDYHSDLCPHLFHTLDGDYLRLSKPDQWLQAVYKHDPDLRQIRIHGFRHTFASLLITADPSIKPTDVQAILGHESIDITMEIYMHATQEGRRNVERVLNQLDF
# Description: However, if DNA containing the P′1-P′2 arm-binding sites was added to the reaction, the inhibition was removed and ^λInt was able to stably bind to the core-binding sites. To determine if ^mv4Int N-ter domain also exerts such inhibitory effect on its C-ter domain, they compared the ^mv4Int binding to a labelled 35-bp dsDNA containing the 21-bp core-attP region (Table 7C), in the presence or absence of unlabelled dsDNA containing the P′1 and P′2 arm-type binding sites (Table 7C). ^mv4Int binding to the COC′ sequence appeared quite unstable, as only faint bands and strong background smear can be observed (lane 3, FIG. 8A). Addition of a 28-bp dsDNA containing the P′12 sequences (Table 7C) greatly stimulates and stabilizes ^mv4Int binding to the core-attP sequence and led to the formation of three complexes (lane 4, FIG. 8A). […] To ensure that the stabilization effect was due to the binding of the N-ter domain of ^mv4Int to the arm-type binding site, the 28-pb P′12 dsDNA was replaced by a DNA duplex of 40 pb containing the P′1 and P′2 sites (Table 7C). A stabilization effect on the binding to the COC′ sequence was observed (lane 5, FIG. 8A), with the formation of two complexes (II* and III*) of mobility lower than the complexes observed with the 28-bp P′12 fragment. […]
# [2] = target: T1, mv4Int (369 aa integrase); experiment: EMSA; stable with P'12 arm DNA; unstable without; room temperature, polydIdC; settings: tags: expressed from pET15b; label: Cy3 on bottom strand
# Description: 5′ Cy3 end-labelled synthetic oligonucleotides (HPLC purified) were obtained from Eurofins. Labelled double strand DNA substrates were prepared by hybridization of complementary oligonucleotides (Table 7C) in 10 mM Tris pH 7.5, 50 mM NaCl by incubating the samples 5 min at 95° C. in a thermal cycler (Biorad) and decreasing the temperature of 1.5° C./min until it reaches 25° C. Binding reactions (20 μl) were performed with 0.87 pmol of labelled core- or arm-type DNA and 4.48 pmol of unlabelled arm- or core-type DNA in buffer containing 25 mM Tris pH 8, 75 mM NaCl, 10% glycerol, 0.5 mM DTT, 0.5 mM EDTA, 1 μg polydIdC (Sigma), 0.1 mg/ml BSA. The protein was added, the reaction performed at room temperature for 20 min and samples were loaded onto a non-denaturing 7.5% polyacrylamide gel (Mini-PROTEAN TGX, Biorad). The gels were run at 4° C., 75V for 2 h.
# However, if DNA containing the P′1-P′2 arm-binding sites was added to the reaction, the inhibition was removed and ^λInt was able to stably bind to the core-binding sites. […]
Binder,binding result [1],binding result [2]
B1,binds,–
B2,–,binds
